Results as given in publication PMC12482196.

Columns and labels:
[1] = molecular target: VC-YlAaf2 (Yarrowia lipolytica); experiment: split reporter (BiFC, NanoBiT); BiFC with the N-terminal and C-terminal regions of Venus in S. cerevisiae YEF473A, cells grown at 30°C for 16 h in liquid SC-Ura-His medium, fluorescence microscopy, nucleus by DAPI
[2] = system: T1, MBP-YlAaf1 (Yarrowia lipolytica), ORF:dd6ddf17; experiment: EMSA; details: 10 mM Tris-HCl pH 7.5, 50 mM NaCl, 0.5 mM EDTA, 1 mM MgCl2, 4% glycerol, 0.5 mM DTT; 300 ng probe, 0-0.5 ug protein in 20 uL; 4% native PAGE in 0.5x TBE at …
T1 sequence: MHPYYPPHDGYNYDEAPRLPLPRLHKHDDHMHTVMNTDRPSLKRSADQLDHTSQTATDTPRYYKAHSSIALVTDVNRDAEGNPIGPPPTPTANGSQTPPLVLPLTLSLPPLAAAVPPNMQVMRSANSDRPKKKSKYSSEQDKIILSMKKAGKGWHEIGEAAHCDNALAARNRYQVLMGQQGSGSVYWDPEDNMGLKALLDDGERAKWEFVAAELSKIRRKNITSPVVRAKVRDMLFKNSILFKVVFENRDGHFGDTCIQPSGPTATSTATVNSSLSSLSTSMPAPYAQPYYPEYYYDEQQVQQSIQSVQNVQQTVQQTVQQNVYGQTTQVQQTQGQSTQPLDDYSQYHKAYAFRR

| Substance | percent of cells with the GFP signal in the nucleus [1] | binding [2] |
| --- | --- | --- |
| VN-YlAaf1 (natural protein) | 17 % of cells |  |
| ACCTCCCTTCGTGGTTTATGACGAAACACGCTTAGCTAAAGTTCTAAAGGCTAATATTACGAACTCTGTGAAAAGGCGAAAAACCACAAAAGGGACGTGTGGTGTTGAAAAGGTGAAAAAGAGAAAACGAAAAGTCTGGCCGAAGTCAAT (double strand) [MHY1 promoter 150-bp probe] |  | no binding |
